We go through two substances from patent publication US6949624.

The target in assay [1] is AML1/ETO chimeric fusion protein (UniProt Q01196). The experiment in a line: cell-based or functional assay.
In assay [2] the target is human nuclear receptor co-repressor (HuN-CoR), 2,440 amino-acid polypeptide (human) (UniProt O75376). As to the kind of experiment: cell-based or functional assay.
UniProt O75376, sequence (O75376 other isoform, or with tags, fused parts or gaps limits assumed): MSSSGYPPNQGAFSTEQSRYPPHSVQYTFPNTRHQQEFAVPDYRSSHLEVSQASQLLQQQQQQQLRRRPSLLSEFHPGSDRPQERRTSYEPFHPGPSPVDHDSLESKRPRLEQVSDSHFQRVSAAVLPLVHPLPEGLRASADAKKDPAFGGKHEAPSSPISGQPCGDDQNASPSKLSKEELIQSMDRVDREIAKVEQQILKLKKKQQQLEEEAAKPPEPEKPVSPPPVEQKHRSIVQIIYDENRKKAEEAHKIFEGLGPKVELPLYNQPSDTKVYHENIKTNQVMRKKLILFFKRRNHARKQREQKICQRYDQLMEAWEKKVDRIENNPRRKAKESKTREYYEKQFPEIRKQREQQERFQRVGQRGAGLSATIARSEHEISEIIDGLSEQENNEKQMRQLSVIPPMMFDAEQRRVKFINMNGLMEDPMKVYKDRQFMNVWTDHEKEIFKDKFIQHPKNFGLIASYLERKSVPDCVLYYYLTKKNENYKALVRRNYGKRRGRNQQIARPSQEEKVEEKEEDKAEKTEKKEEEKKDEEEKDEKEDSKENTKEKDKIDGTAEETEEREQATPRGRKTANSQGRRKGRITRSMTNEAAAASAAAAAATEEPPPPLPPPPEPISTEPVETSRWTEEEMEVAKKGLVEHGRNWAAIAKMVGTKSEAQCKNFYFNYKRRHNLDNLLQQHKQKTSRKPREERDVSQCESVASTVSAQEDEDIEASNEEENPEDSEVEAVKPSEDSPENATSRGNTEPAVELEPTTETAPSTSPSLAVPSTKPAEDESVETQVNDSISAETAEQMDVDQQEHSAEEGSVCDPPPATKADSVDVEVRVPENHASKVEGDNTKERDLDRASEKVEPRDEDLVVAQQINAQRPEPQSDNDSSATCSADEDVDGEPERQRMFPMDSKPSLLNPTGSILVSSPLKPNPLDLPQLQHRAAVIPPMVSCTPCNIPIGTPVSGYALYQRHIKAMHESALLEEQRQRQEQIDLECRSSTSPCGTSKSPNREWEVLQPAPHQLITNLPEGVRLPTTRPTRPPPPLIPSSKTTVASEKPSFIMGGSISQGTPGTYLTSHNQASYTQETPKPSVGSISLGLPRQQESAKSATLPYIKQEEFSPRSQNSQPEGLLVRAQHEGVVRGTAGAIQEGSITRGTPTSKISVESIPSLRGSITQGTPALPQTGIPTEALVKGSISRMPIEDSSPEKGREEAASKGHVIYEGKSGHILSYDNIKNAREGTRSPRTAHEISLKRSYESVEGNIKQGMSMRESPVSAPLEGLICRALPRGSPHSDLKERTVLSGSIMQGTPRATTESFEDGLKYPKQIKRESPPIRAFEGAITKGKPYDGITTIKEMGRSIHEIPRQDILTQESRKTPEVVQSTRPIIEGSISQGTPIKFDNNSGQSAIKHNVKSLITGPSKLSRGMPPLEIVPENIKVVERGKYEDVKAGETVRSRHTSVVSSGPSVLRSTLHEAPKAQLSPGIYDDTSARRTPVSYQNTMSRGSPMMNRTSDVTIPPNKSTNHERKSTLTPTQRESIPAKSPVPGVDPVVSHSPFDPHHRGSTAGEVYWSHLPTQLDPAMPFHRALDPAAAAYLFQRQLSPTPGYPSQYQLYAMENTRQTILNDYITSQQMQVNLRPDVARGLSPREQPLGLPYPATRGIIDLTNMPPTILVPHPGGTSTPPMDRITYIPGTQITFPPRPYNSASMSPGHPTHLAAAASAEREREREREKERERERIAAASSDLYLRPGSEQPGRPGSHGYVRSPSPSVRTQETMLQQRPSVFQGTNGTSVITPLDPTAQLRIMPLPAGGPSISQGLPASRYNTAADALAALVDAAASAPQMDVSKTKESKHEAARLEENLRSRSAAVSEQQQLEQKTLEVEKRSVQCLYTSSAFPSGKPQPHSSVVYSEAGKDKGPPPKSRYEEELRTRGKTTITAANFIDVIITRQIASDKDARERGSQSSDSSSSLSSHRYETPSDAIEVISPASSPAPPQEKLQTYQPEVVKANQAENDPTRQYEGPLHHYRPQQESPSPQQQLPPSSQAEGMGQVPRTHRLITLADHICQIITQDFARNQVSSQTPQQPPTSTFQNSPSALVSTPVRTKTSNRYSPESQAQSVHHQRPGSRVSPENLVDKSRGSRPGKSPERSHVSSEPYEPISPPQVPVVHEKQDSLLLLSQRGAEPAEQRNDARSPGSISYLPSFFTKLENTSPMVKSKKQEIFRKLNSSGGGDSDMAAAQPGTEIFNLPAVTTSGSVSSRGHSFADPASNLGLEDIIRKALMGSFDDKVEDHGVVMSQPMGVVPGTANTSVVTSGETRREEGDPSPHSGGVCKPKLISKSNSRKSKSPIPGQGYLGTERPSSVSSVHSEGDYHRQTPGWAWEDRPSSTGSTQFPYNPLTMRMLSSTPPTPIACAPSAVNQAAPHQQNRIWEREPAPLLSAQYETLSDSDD

UniProt Q01196, sequence (Q01196 other isoform, or with tags, fused parts or gaps mutant limits assumed): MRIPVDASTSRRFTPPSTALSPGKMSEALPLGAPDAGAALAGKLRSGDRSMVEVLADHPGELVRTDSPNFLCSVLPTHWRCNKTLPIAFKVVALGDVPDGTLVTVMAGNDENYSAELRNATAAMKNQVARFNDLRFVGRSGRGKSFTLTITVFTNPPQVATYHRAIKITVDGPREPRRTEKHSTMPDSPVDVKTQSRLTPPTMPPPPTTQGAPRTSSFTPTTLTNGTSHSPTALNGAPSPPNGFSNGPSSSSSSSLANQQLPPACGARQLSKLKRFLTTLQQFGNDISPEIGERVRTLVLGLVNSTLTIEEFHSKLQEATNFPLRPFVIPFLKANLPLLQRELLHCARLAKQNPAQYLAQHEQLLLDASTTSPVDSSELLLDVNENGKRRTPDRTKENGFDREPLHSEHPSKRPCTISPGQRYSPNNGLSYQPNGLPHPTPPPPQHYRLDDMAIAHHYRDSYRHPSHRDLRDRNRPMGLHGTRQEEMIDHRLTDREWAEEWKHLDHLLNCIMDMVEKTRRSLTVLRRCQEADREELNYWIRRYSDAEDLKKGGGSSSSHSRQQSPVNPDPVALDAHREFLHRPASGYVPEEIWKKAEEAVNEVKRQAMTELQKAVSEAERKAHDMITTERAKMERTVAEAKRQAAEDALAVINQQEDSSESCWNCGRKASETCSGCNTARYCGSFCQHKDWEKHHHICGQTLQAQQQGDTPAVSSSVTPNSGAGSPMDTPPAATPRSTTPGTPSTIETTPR

In assay [1], “ETO-interacting domain of N-CoR (NCoREID) fused with enhanced green fluorescent protein” showed a transduced Kasumi-1 cells positive for CD13 expression (flow cytometry) of 87% and a transduced Kasumi-1 cells positive for annexin staining (flow cytometry) of 97%.

For “zinc-finger domains of ETO (ETOZn) fused with enhanced green fluorescent protein (from UniProt Q06455 510-556)”, in assay [2], the transduced Kasumi-1 cells positive for CD13 expression (flow cytometry) was 89% and the transduced Kasumi-1 cells positive for annexin staining (flow cytometry) stood at 97%.
